Data from patent US20250035634A1, “A METHOD FOR DETECTING CLUSTERING OF RAS PROTEIN” (Nanyang Technological University, priority 2021, published 2025).

Test system: KRasWT
Assay: nanobar-guided KRasWT clustering upon EGF activation in U2OS cells
Assay type: cell-based
Conditions: EGF 100 ng/ml, 1 hr, mean±s.e.m.
Experimental: Cell imaging is performed with laser scanning confocal microscopy (Zeiss LSM 800 with Airyscan) and a Plan-Apochromat 100×/1.4 oil objective. EGFP is excited at 488 nm and detected at 490-570 nm. RFP is excited at 561 nm and detected at 570-645 nm. Images were taken with a resolution of 512×512 pixels, 16-bit and 124 nm pixel size. A scanning speed of 20 s/image and an averaging mode of 4 times/line can be applied. During imaging, the cells are maintained in live cell imaging solution (Thermo Fisher) at 37° C. in an on-stage incubator. […] The images are conducted with a single snap shot for display of Ras variants and the quantification. For the imaging of co-expressed K-Ras variants and CRaf-RBD, z-stack images can be taken and averaged for display and the intensity profiles. […]
To quantify the nanobar-guided clustering of Ras variants, the fluorescence intensity ratio at the nanobar end to the flat sidewall (i.e. Enrichment Index, EI) is calculated. […] Next, the nanobars covered by the cell to be analyzed are identified by a custom-written MATLAB (MathWorks) code. […] To minimize the possible human bias, all the parameters for the calculation and the sorting criteria for data validation have been kept consistent throughout the entire quantification process. After the data validation, the remaining data points are ready for plotting. […]

B1: EGF: Epidermal Growth Factor used to activate wild-type K-Ras in cells (protein, UniProt P01133 23-1207, looked up)
Pro-epidermal growth factor: PQHWSCPEGTLAGNGNSTCVGPAPFLIFSHGNSIFRIDTEGTNYEQLVVDAGVSVIMDFHYNEKRIYWVDLERQLLQRVFLNGSRQERVCNIEKNVSGMAINWINEEVIWSNQQEGIITVTDMKGNNSHILLSALKYPANVAVDPVERFIFWSSEVAGSLYRADLDGVGVKALLETSEKITAVSLDVLDKRLFWIQYNREGSNSLICSCDYDGGSVHISKHPTQHNLFAMSLFGDRIFYSTWKMKTIWIANKHTGKDMVRINLHSSFVPLGELKVVHPLAQPKAEDDTWEPEQKLCKLRKGNCSSTVCGQDLQSHLCMCAEGYALSRDRKYCEDVNECAFWNHGCTLGCKNTPGSYYCTCPVGFVLLPDGKRCHQLVSCPRNVSECSHDCVLTSEGPLCFCPEGSVLERDGKTCSGCSSPDNGGCSQLCVPLSPVSWECDCFPGYDLQLDEKSCAASGPQPFLLFANSQDIRHMHFDGTDYGTLLSQQMGMVYALDHDPVENKIYFAHTALKWIERANMDGSQRERLIEEGVDVPEGLAVDWIGRRFYWTDRGKSLIGRSDLNGKRSKIITKENISQPRGIAVHPMAKRLFWTDTGINPRIESSSLQGLGRLVIASSDLIWPSGITIDFLTDKLYWCDAKQSVIEMANLDGSKRRRLTQNDVGHPFAVAVFEDYVWFSDWAMPSVMRVNKRTGKDRVRLQGSMLKPSSLVVVHPLAKPGADPCLYQNGGCEHICKKRLGTAWCSCREGFMKASDGKTCLALDGHQLLAGGEVDLKNQVTPLDILSKTRVSEDNITESQHMLVAEIMVSDQDDCAPVGCSMYARCISEGEDATCQCLKGFAGDGKLCSDIDECEMGVPVCPPASSKCINTEGGYVCRCSEGYQGDGIHCLDIDECQLGEHSCGENASCTNTEGGYTCMCAGRLSEPGLICPDSTPPPHLREDDHHYSVRNSDSECPLSHDGYCLHDGVCMYIEALDKYACNCVVGYIGERCQYRDLKWWELRHAGHGQQQKVIVVAVCVVVLVMLLLLSLWGAHYYRTQKLLSKNPKNPYEESSRDVRSRRPADTEDGMSSCPQPWFVVIKEHQDLKNGGQPVAGEDGQAADGSMQPTSWRQEPQLCGMGTEQGCWIPVSSDKGSCPQVMERSFHMPSYGTQTLEGGVEKPHSLLSANPLWQQRALDPPHQMELTQ
modifications: Pro-epidermal growth factor
Enrichment Index (EI) of KRasWT: 1.89 ± 0.042
